In the Human Domainome abundance scans (Beltran et al. 2025) one finds abundance fitness data, which are given here for 58 variants.

± gives the uncertainty stated by the source.

B1: SWI/SNF complex subunit SMARCC2, residues 599 to 641; numbered along this chain, Q8TAQ2 (parent)
chain: REWTEQETLLLLEALEMYKDDWNKVSEHVGSRTQDECILHFLR
B2: SWI/SNF complex subunit SMARCC1, residues 620 to 663; numbered along this chain, Q92922 (parent)
chain: GREWTEQETLLLLEALEMYKDDWNKVSEHVGSRTQDECILHFLR

In the first data set the parent is B1. Put plainly: abundance fitness (aPCA) (normalised: wild type 0, dead -1); higher = more abundant; growth selection in yeast, the domain comes from the species named. The conditions noted are these: Homo sapiens.
For the variant REWTEQETLLLLEALEMYKDDWNKVSEHVGSRTQDECILHFAR, the abundance fitness turned out to be 0.334 ± 0.078.
Still for that read-out and setting: the figure for REWTEQETLLLLEALEMYKDDWNKVSEHVGSRTQDECILHFDR is 0.726 ± 0.088; for REWTEQETLLLLEALEMYKDDWNKVSEHVGSRTQDECILHFGR it is 0.447 ± 0.065.
Still for that read-out and setting: the figure for REWTEQETLLLLEALEMYKDDWNKVSEHVGSRTQDECILHFTR is 0.519 ± 0.087; for REWTEQETLLLLEALEMYKDDWNKVSEHVGSRTQDECILHFFR it is 0.139 ± 0.067.
The same measure, in the same setting: as for REWTEQETLLLLEALEMYKDDWNKVSEHVGSRTQDECILHFRR, the figure is 0.589 ± 0.057.
Turning to REWTEQETLLLLEALEMYKDDWNKVSEHVGSRTQDECILHFSR, the abundance fitness amounted to 0.376 ± 0.057.
Same read-out and setting: as for REWTEQETLLLLEALEMYKDDWNKVSEHVGSRTQDECILHFQR, the figure is 0.351 ± 0.098; as for REWTEQETLLLLEALEMYKDDWNKVSEHVGSRTQDECILHFVR, 0.343 ± 0.06.
On the same count and under the same terms, as for REWTEQETLLLLEALEMYKDDWNKVSEHVGSRTQDECILHFWR, the figure is 0.049 ± 0.14; as for REWTEQETLLLLEALEMYKDDWNKVSEHVGSRTQDECILHFKR, 0.895 ± 0.13.
Same read-out and setting: the figure for REWTEQETLLLLEALEMYKDDWNKVSEHVGSRTQDECILHFMR is 0.167 ± 0.13.
As to REWTEQETLLLLEALEMYKDDWNKVSEHVGSRTQDECILHFHR, the abundance fitness was determined as 0.615 ± 0.16.
For REWTEQETLLLLEALEMYKDDWNKVSEHVGSRTQDECILHPLR, the abundance fitness was 0.43 ± 0.076.
Still for that read-out and setting: the figure for REWTEQETLLLLEALEMYKDDWNKVSEHVGSRTQDECILHCLR is -0.425 ± 0.2; for REWTEQETLLLLEALEMYKDDWNKVSEHVGSRTQDECILHELR it is 0.354 ± 0.11; for REWTEQETLLLLEALEMYKDDWNKVSEHVGSRTQDECILHLLR it is -0.487 ± 0.072.
In the case of REWTEQETLLLLEALEMYKDDWNKVSEHVGSRTQDECILHTLR, the abundance fitness was 0.047 ± 0.079.
For REWTEQETLLLLEALEMYKDDWNKVSEHVGSRTQDECILHILR, the abundance fitness is -0.299 ± 0.11.
Still for that read-out and setting: as for REWTEQETLLLLEALEMYKDDWNKVSEHVGSRTQDECILHHLR, the figure is 0.442 ± 0.077; as for REWTEQETLLLLEALEMYKDDWNKVSEHVGSRTQDECILHQLR, 0.375 ± 0.088; as for REWTEQETLLLLEALEMYKDDWNKVSEHVGSRTQDECILHRLR, 0.501 ± 0.084.
Still for that read-out and setting: as for REWTEQETLLLLEALEMYKDDWNKVSEHVGSRTQDECILHNLR, the figure is 0.581 ± 0.11; as for REWTEQETLLLLEALEMYKDDWNKVSEHVGSRTQDECILHYLR, 0.185 ± 0.17; as for REWTEQETLLLLEALEMYKDDWNKVSEHVGSRTQDECILHSLR, 0.324 ± 0.066.
As to REWTEQETLLLLEALEMYKDDWNKVSEHVGSRTQDECILHMLR, the abundance fitness was determined as 0.059 ± 0.091.
The same measure, in the same setting: as for REWTEQETLLLLEALEMYKDDWNKVSEHVGSRTQDECILHVLR, the figure is -0.452 ± 0.083; as for REWTEQETLLLLEALEMYKDDWNKVSEHVGSRTQDECILHGLR, 0.417 ± 0.082; as for REWTEQETLLLLEALEMYKDDWNKVSEHVGSRTQDECILHDLR, 0.344 ± 0.065.
As to REWTEQETLLLLEALEMYKDDWNKVSEHVGSRTQDECILWFLR, the abundance fitness was -0.139 ± 0.23.
Same read-out and setting: as for REWTEQETLLLLEALEMYKDDWNKVSEHVGSRTQDECILVFLR, the figure is -0.376 ± 0.17; as for REWTEQETLLLLEALEMYKDDWNKVSEHVGSRTQDECILYFLR, 0.272 ± 0.08.
On the same count and under the same terms, as for REWTEQETLLLLEALEMYKDDWNKVSEHVGSRTQDECILSFLR, the figure is -0.383 ± 0.099; as for REWTEQETLLLLEALEMYKDDWNKVSEHVGSRTQDECILTFLR, -0.27 ± 0.099.

The variants in the next data set derive from B2. The description is as above. The conditions noted are these: Homo sapiens.
For GREWTEQETLLLLEALEMYKDCWNKVSEHVGSRTQDECILHFLR, the abundance fitness is -0.122 ± 0.098.
For GREWTEQETLLLLEYLEMYKDDWNKVSEHVGSRTQDECILHFLR, the abundance fitness was -0.746 ± 0.24.
Consider GREWTEQETLLLLEALEMYKDDWNKVSEHVGSRTQQECILHFLR, for which the abundance fitness is 0.041 ± 0.11.
Still for that read-out and setting: as for GREWTEQETLLLLEALEMYKDDWNKVSEHVGSRTQVECILHFLR, the figure is -0.354 ± 0.075; as for GREWTEQETWLLLEALEMYKDDWNKVSEHVGSRTQDECILHFLR, -0.137 ± 0.083; as for GREWTEQETYLLLEALEMYKDDWNKVSEHVGSRTQDECILHFLR, -0.407 ± 0.18.
As for GREWTEQTTLLLLEALEMYKDDWNKVSEHVGSRTQDECILHFLR, the abundance fitness was -0.651 ± 0.16.
Take GREWTEQFTLLLLEALEMYKDDWNKVSEHVGSRTQDECILHFLR: the abundance fitness is -0.702 ± 0.26.
GREWTEQETLLLLEALEMYKEDWNKVSEHVGSRTQDECILHFLR: the abundance fitness was determined as 0.225 ± 0.071.
Same read-out and setting: the figure for GREWTEQETLLLLEALEMYKDDWCKVSEHVGSRTQDECILHFLR is -0.001 ± 0.077; for GREWTEQETLLLLEALEMYKDDWMKVSEHVGSRTQDECILHFLR it is 0.065 ± 0.084; for GREWTEQETLLLLEALEMYKDDWGKVSEHVGSRTQDECILHFLR it is 0.075 ± 0.061.
Same read-out and setting: as for GREWTEQETLLLLEALEMYKDDWNKVSENVGSRTQDECILHFLR, the figure is -0.173 ± 0.13; as for GREWTEQETLVLLEALEMYKDDWNKVSEHVGSRTQDECILHFLR, -0.064 ± 0.08.
Still for that read-out and setting: as for GREWTEQETLRLLEALEMYKDDWNKVSEHVGSRTQDECILHFLR, the figure is -0.139 ± 0.063; as for GREWTEQETLLLLEALEMYKDDWNKVSEHVGSRTQDECILHFAR, 0.286 ± 0.069.
Take GREWTEQETLLLLEALEMYKDDWNKVSEHVGSRTQDECILHFWR: the abundance fitness was 0.076 ± 0.074.
The same measure, in the same setting: the figure for GREWTEQETLLLLEALEMYKDDWNKVSEHVGSRTQDECILHFMR is 0.184 ± 0.11; for GREWTEQETLLLLEALEMYKDDWNKVSEHVGSRTQDPCILHFLR it is -0.846 ± 0.18; for GREWTEQETLLLLEALEMYKDDWNKVSEHVGSRTQDTCILHFLR it is -0.738 ± 0.13.
For GREWTEQETLLLLEAPEMYKDDWNKVSEHVGSRTQDECILHFLR, the abundance fitness was -0.77 ± 0.11.
GREWTEQETLLLLEACEMYKDDWNKVSEHVGSRTQDECILHFLR: the abundance fitness is 0.197 ± 0.057.
Turning to GREWTEQETLLLLEAAEMYKDDWNKVSEHVGSRTQDECILHFLR, the abundance fitness stood at 0.16 ± 0.051.
On to GREWTEQETLLLLEALEMYKDDWNRVSEHVGSRTQDECILHFLR, for which the abundance fitness came out at 0.072 ± 0.067.
